Laboratory results taken from the supplement of paper PMC9170038.

Tested on: MS2 coat protein
Assay: apparent KD of MS2 coat protein; designed switch direction (-1 OFF switch, 1 ON switch): 1; higher = weaker reporter binding
How it was run: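 Three titration conditions were used: no input, 200 uM small-molecule ligand, and an oligonucleotide input. In each, SNAP-549-labelled MS2 coat protein was raised from 0.7 or 1.5 nM, doubling, to 3 µM over designed RNA switches transcribed on Illumina chips by stalled E. coli RNA polymerase. Curve fits of normalised cluster fluorescence gave values whose per-design median over clusters is the apparent KD.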

[1] = input ligand: microRNA oligo, concentration not stated
[2] = Eterna round: R95, input ligand: FMN 200 uM
[3] = Eterna round: R95, input ligand: microRNA oligo, concentration not stated
[4] = Eterna round: R95, input ligand: none

CGGGAGAUCGUAGGAUAUCUAGGAUAUGAACGAGGAUCACCCGAGCAGCAUCAGCGCAUCAGAGGAGAGAAGGACGAUCAUGCG [pwkr ssNG2 2F5 2FMN.6] (Eterna round: R96, puzzle: Same State NG 2)
apparent KD of MS2 coat protein (input ligand: FMN 200 uM): 751 nM
apparent KD of MS2 coat protein [1]: 31.7 nM
apparent KD of MS2 coat protein (input ligand: none): 741 nM

AAUAUUUAUGCAGGAUAUGAUUAACAUGAGGAUCACCCAUGUGGUGUUGUGAGUAAGGAGAGUGAUCAGAAGGGCAUUUUUUUU [JMF's solution 73] (Eterna round: R96, puzzle: Same State NG 2)
apparent KD of MS2 coat protein (input ligand: FMN 200 uM): 379 nM
apparent KD of MS2 coat protein [1]: 271 nM
apparent KD of MS2 coat protein (input ligand: none): 463 nM

AUUAUAAAUGCAGGAUAUGAUUAACAUGAGGAUCACCCAUGUGGUGUUGUGAGUAAGGAGAGUGAUCAGAAGGGCAUUUUUUUU [JMF's solution 24] (Eterna round: R96, puzzle: Same State NG 2)
apparent KD of MS2 coat protein (input ligand: FMN 200 uM): 620 nM
apparent KD of MS2 coat protein [1]: 343 nM
apparent KD of MS2 coat protein (input ligand: none): 555 nM

GAGAGGAUAUGGAGAGGAUCACCCUCUAGAAGGCUCGAAGGAGAGGAUAUGGAGAGGAUCACCCUCUAGAAGGCUCACUUCUCU [pwkr ssNG3 DX 2xF5 +2xFMN.6] (Eterna round: R96, puzzle: Same State NG 3)
apparent KD of MS2 coat protein (input ligand: FMN 200 uM): 256 nM
apparent KD of MS2 coat protein [1]: 105 nM
apparent KD of MS2 coat protein (input ligand: none): 156 nM

AGAGUGUAUCCACAGGAUAUGCGAGCUGACACAUGAGGAUCACCCAUGUAGUCCUAAAGGGCCAAGCAGAAGGGUGGUAAAGCUC [Oneson] (puzzle: Same State 2)
apparent KD of MS2 coat protein [2]: 17.5 nM
apparent KD of MS2 coat protein [3]: 28.9 nM
apparent KD of MS2 coat protein [4]: 33.9 nM

AUUGCUAGCGCAGGAUAUGAUGCGAAAAUUGCGUCAGAAGGGUGUACUCUCUCAUUGCGGGAGGACAUGAGGAUCACCCAUGUC [SameState NG1 #83] (Eterna round: R96, puzzle: Same State NG 1)
apparent KD of MS2 coat protein (input ligand: FMN 200 uM): 66.6 nM
apparent KD of MS2 coat protein [1]: 71.5 nM
apparent KD of MS2 coat protein (input ligand: none): 83.3 nM

GGAGCCAAGGCAGGAUAUUCAUUAUAAAUUACAUGAGGAUCACCCAUGUUGGCCAGAAGGCCAUGGGAGAAGGGCCAUGGCUCG [Xeonanis - 13 mod25] (Eterna round: R96, puzzle: Same State NG 2)
apparent KD of MS2 coat protein (input ligand: FMN 200 uM): 39.7 nM
apparent KD of MS2 coat protein [1]: 280 nM
apparent KD of MS2 coat protein (input ligand: none): 322 nM

CUUUAUCACUAUACAUGAGGAUCACCCAUGUUAUCAUCAUGAGAGGAUAUCGUAUUUGGAUUUUUCGAGAAGGCUCUUUUGUAU [JR_SSNG3_Sub076] (Eterna round: R96, puzzle: Same State NG 3)
apparent KD of MS2 coat protein [1]: 90.4 nM

CUGACAUGUCAAGGAUAUCACGUCGAUUAGACGUGAGAAGGUGAUCUACACAUGAGGAUCACCCAUGUGUUACGUGGGAGUCAG [Brourd's SSNG1/1-A2 mod 19] (Eterna round: R96, puzzle: Same State NG 1)
apparent KD of MS2 coat protein (input ligand: FMN 200 uM): 54.9 nM
apparent KD of MS2 coat protein [1]: 113 nM
apparent KD of MS2 coat protein (input ligand: none): 162 nM

UGUUGUAUUACAGGAUAUCUAGUAUUUUUAUCUAGAGAAGGGUAUUCACAUGAGGAUCACCCAUGUAUAUACGAGGAAGUUGUG [JMF's solution 53] (Eterna round: R96, puzzle: Same State NG 1)
apparent KD of MS2 coat protein [1]: 25.9 nM

UGUUGUAUUACAGGAUAUCUAUUAGAUUUAUUUAGAGAAGGGUAUUCACAUGAGGAUCACCCAUGUAUAUACGAGGAAGUUGUG [JMF's solution 86] (Eterna round: R96, puzzle: Same State NG 1)
apparent KD of MS2 coat protein [1]: 40.2 nM

GCUCGGAUGAUGACCCACAUGAGGAUCACCCAUGUGCGUGGGCAGGAUAUCUAGAUUAAGGAUGUAGAGAAGGGUCUACCGAGC [SameState NG3 #31] (Eterna round: R96, puzzle: Same State NG 3)
apparent KD of MS2 coat protein (input ligand: FMN 200 uM): 964 nM
apparent KD of MS2 coat protein [1]: 318 nM
apparent KD of MS2 coat protein (input ligand: none): 407 nM

CGUCCGGCCUGUGCUGGCCGGAUGCAUGUACAUGAGGAUCACCCAUGUUCAUGUGCAGGCUUUUUGCUCGUCUUGUG [salish99_mir208a_r3_008] (puzzle: Sensor for hsa-mir-208a)
apparent KD of MS2 coat protein [2]: 19.2 nM
apparent KD of MS2 coat protein [3]: 11.9 nM
apparent KD of MS2 coat protein [4]: 23.1 nM

UGUUGUUAAUUAGGAUAUGGGCACAUGAGGAUCACCCAUGUAUUGUCGAUGCUAUGUGGACACGUUUAGAAGGAAUGGCUAACA [SameState NG2 #91] (Eterna round: R96, puzzle: Same State NG 2)
apparent KD of MS2 coat protein (input ligand: FMN 200 uM): 64.4 nM
apparent KD of MS2 coat protein [1]: 55.4 nM
apparent KD of MS2 coat protein (input ligand: none): 64.8 nM

GGAGCCGGCACCGAGGAUAUUCAUAUUAAAACAUGAGGAUCACCCAUGUAGGCCAGAAGGCCUUGGGAGAAGGCGGAUCGGCUCG [Xeonanis] (Eterna round: R96, puzzle: Same State 2)
apparent KD of MS2 coat protein (input ligand: FMN 200 uM): 33.2 nM
apparent KD of MS2 coat protein [1]: 305 nM
apparent KD of MS2 coat protein (input ligand: none): 544 nM

GAAAAGGCGACGCAGGAUAUGAAAGGUGAAACAUGAGGAUCACCCAUGUGCUACCUUCCGAUAAAUCAGAAGGGCGACGCCUAGA [Azaanre] (puzzle: Same State 2)
apparent KD of MS2 coat protein [2]: 11.4 nM
apparent KD of MS2 coat protein [3]: 9.79 nM
apparent KD of MS2 coat protein [4]: 11.3 nM

UCGUCGACACAAAUUCGACAACAUGAGGAUCACCCAUGUCCACAGGAUAUCGGCAGCUUAUGCUCCGAGAAGGGUGGUUAGAUU [Beage Mod] (Eterna round: R96, puzzle: Same State NG 3)
apparent KD of MS2 coat protein (input ligand: FMN 200 uM): 435 nM
apparent KD of MS2 coat protein [1]: 664 nM
apparent KD of MS2 coat protein (input ligand: none): 605 nM

ACAAGACAGGGAGGAUAUAGCUGUUCAUCAAAGUUAGAAGGCUCGUACACAUGAGGAUCACCCAUGUUGUCGGCAGUCGACUGA [Eternabot solution 42] (Eterna round: R96, puzzle: Same State NG 1)
apparent KD of MS2 coat protein (input ligand: FMN 200 uM): 7.44 nM
apparent KD of MS2 coat protein [1]: 9.67 nM
apparent KD of MS2 coat protein (input ligand: none): 12.2 nM

AGAUCUCCUCUAGGAUAUCCCUAACAUGAGGAUCACCCAUGUCCGAAUUGCAGACAUAGGCCGAGGGAGAAGGAGAAACCGUCG [Eternabot solution 41] (Eterna round: R96, puzzle: Same State NG 2)
apparent KD of MS2 coat protein (input ligand: FMN 200 uM): 742 nM
apparent KD of MS2 coat protein [1]: 576 nM
apparent KD of MS2 coat protein (input ligand: none): 856 nM

GAGUGGUUGGGAGGAUAUGCAUUGUUAUUAAAUGCAGAAGGUUUUAACAUGAGGAUCACCCAUGUAGGACUAUUCCUGUGUUUC [Parity 68 - Jieux - Same State NG 1] (Eterna round: R96, puzzle: Same State NG 1)
apparent KD of MS2 coat protein [1]: 12.6 nM

ACAUGAAAUUGAGGAUAUUUUGUACCUACAUGUGACAUGAGGAUCACCCAUGUGGUAAGUAUAAGAGAGAAGGCAAAGAUAUGU [Equivalence 6 - Jieux - Same State NG 2] (Eterna round: R96, puzzle: Same State NG 2)
apparent KD of MS2 coat protein (input ligand: FMN 200 uM): 30 nM
apparent KD of MS2 coat protein [1]: 29.2 nM
apparent KD of MS2 coat protein (input ligand: none): 45.1 nM

AGCUAUCGAAAACGAUAGCAAAAGCGUGUACAUGAGGAUCACCCAUGUCAUGUACAAGCUUUUUGCUCGUCUUAAAA [Zipper 23 - 6] (puzzle: Sensor for hsa-mir-208a)
apparent KD of MS2 coat protein [2]: 34 nM
apparent KD of MS2 coat protein [3]: 14.4 nM
apparent KD of MS2 coat protein [4]: 41.8 nM

UUAUAACAUGAGGAUCACCCAUGUCAACAAAGUCGAGGAUAUGGGCAUAGAUUAUAAGAACCAGAAGGCGAAUAUG [Mat - Same State 1 - Mod of UCT - D41] (puzzle: Same State 1)
apparent KD of MS2 coat protein [2]: 140 nM
apparent KD of MS2 coat protein [3]: 11.3 nM
apparent KD of MS2 coat protein [4]: 1.69 nM

AUAAAACAUGAGGAUCACCCAUGUCAACAAAGUCGAGGAUAUGGGCAAAUAAAAUAAGAACCAGAAGGCGUAUAAU [salish99_ss1_r3_034] (puzzle: Same State 1)
apparent KD of MS2 coat protein [3]: 341 nM

GUUACAUGAGGAUCACCCAUGUAUGUGUGGGAGUAAGUGUCUUAGGAUAUCUAGGAUUUAAUUUAAGAGAAGGAAGAUUGUUGU [JMF's solution 50] (Eterna round: R96, puzzle: Same State NG 3)
apparent KD of MS2 coat protein (input ligand: FMN 200 uM): 89.7 nM
apparent KD of MS2 coat protein [1]: 45.9 nM
apparent KD of MS2 coat protein (input ligand: none): 77.4 nM

AGCUAGUACCGAGGAUAUACGUACAUGAGGAUCACCCAUGUAUACAUGAAAUAAUGAGACUACAUGUAGAAGGCGGUACUAGCA [Mat - Same State NG 2 - JL mod - D50] (Eterna round: R96, puzzle: Same State NG 2)
apparent KD of MS2 coat protein (input ligand: FMN 200 uM): 14.2 nM
apparent KD of MS2 coat protein [1]: 33.5 nM
apparent KD of MS2 coat protein (input ligand: none): 48.7 nM

GCUAGAAAUAAAGCCAACAUGAGGAUCACCCAUGUAUGUUGGCAGGAUAUCGUAUGCAAAGCAUACGAGAAGGGCUAAACUAGC [Mat - Same State NG 3 - JL Mod - D6] (Eterna round: R96, puzzle: Same State NG 3)
apparent KD of MS2 coat protein (input ligand: FMN 200 uM): 129 nM
apparent KD of MS2 coat protein [1]: 149 nM
apparent KD of MS2 coat protein (input ligand: none): 201 nM

AAAGGAUGAUGUUACAUGAGGAUCACCCAUGUUGUGAUAACUAAGGAUAUGUGUUAAACCAGUUAAUAGAAGGUAGGAUCAUAA [AK SSNG3-V2-5] (Eterna round: R96, puzzle: Same State NG 3)
apparent KD of MS2 coat protein (input ligand: FMN 200 uM): 182 nM
apparent KD of MS2 coat protein [1]: 77.1 nM
apparent KD of MS2 coat protein (input ligand: none): 112 nM

ACAUUUAGCUCUUGCACAUGAGGAUCACCCAUGUUCGGUUCACAGGAUAUCUAGUCAAACGGGCUGGAGAAGGGUGGCAGGAGC [Islainon] (Eterna round: R96, puzzle: Same State NG 3)
apparent KD of MS2 coat protein (input ligand: FMN 200 uM): 67.9 nM
apparent KD of MS2 coat protein [1]: 200 nM
apparent KD of MS2 coat protein (input ligand: none): 289 nM

UGUUGUAUUACAGGAUAUCUAUUAUUUUGAUUUAGAGAAGGGUAUUCACAUGAGGAUCACCCAUGUAUAUACGAGGAAGUUGUG [JMF's solution 22] (Eterna round: R96, puzzle: Same State NG 1)
apparent KD of MS2 coat protein [1]: 34.4 nM

AGAUCAUGACGAGGAUAUGGUACAUGAGGAUCACCCAUGUAUGUACCACGACGCGUACGUCGAAUCCAGAAGGCGUCGUGAUCA [Mat - Same State NG 2 - JL mod - D16] (Eterna round: R96, puzzle: Same State NG 2)
apparent KD of MS2 coat protein (input ligand: FMN 200 uM): 19 nM
apparent KD of MS2 coat protein [1]: 66.1 nM
apparent KD of MS2 coat protein (input ligand: none): 99.3 nM
